Test results from article PMC3229523, “Identification of Lactoferricin B Intracellular Targets Using an Escherichia coli Proteome Chip” (PLoS ONE, 2011).
Ends that are not written are not given here. * marks the point of attachment. Biotin = O=C1N[C@H]2[C@H](CS[C@H]2CCCCC(=O)*)N1

Columns and labels:
Assay in all cases: peptide or protein array; E. coli proteome chip: purified His-tagged proteins printed in duplicate on Fullmoon slides, blocked with 1% BSA; 10 nM N-terminal biotinylated LfcinB with 1% BSA, room temperature, 1 h; detected with DyLight 649-labeled streptavidin, ratio to DyLight 549-labeled anti-His antibody; ProCAT normalisation, local cut-off; triplicate chips
Conditions in all cases: both partners purified
[1] = molecular target: RplE (E. coli K-12, UniProt P62399 1-179)
[2] = molecular target: T1, YhiW (E. coli K-12, UniProt P63201 1-242)
T1 construct: YhiW, E. coli K-12
T1 sequence (looked up): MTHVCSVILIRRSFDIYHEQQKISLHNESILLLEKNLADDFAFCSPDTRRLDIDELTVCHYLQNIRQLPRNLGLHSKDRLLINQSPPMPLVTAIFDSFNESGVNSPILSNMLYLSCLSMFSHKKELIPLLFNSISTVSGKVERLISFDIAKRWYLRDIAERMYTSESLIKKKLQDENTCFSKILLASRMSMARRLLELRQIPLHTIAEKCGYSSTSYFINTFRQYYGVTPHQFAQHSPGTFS

[3] = molecular target: T2, YqiA (E. coli K-12, UniProt P0A8Z7 1-193)
T2 construct: YqiA, E. coli K-12

[4] = molecular target: T3, InfC (E. coli K-12, UniProt P0A707 1-180)
T3 construct: InfC, E. coli K-12
T3 sequence (looked up): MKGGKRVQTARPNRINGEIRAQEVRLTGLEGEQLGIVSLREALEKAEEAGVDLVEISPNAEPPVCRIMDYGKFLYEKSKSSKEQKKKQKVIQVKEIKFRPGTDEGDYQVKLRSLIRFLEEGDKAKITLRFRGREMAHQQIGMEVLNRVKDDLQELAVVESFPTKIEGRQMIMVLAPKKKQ

[5] = molecular target: T4, YdcC (E. coli K-12, UniProt P28917 1-378)
T4 construct: YdcC, E. coli K-12
T4 sequence (looked up): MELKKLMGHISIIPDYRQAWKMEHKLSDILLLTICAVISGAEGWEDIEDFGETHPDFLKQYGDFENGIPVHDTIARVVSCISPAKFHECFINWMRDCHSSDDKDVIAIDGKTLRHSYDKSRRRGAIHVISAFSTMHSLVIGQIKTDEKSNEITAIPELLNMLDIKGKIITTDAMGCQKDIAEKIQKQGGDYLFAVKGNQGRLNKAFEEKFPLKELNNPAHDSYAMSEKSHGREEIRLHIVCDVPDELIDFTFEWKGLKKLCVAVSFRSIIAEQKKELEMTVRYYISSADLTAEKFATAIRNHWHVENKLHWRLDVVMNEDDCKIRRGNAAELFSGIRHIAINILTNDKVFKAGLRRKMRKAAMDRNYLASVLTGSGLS

[6] = molecular target: T5, YhdG (E. coli K-12, UniProt P0ABT5 1-321)
T5 construct: YhdG, E. coli K-12
T5 sequence (looked up): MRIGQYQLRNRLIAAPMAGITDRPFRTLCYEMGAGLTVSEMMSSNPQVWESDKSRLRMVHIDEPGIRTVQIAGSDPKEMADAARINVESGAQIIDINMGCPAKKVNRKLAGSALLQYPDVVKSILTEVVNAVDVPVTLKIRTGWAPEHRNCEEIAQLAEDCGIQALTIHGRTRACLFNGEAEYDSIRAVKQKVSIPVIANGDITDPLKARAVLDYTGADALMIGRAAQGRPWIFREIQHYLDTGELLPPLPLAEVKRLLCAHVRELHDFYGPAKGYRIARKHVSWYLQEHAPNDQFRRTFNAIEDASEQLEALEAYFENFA

[7] = molecular target: T6, SfmH (E. coli K-12, UniProt P75715 25-327)
T6 construct: SfmH, E. coli K-12
T6 sequence (looked up): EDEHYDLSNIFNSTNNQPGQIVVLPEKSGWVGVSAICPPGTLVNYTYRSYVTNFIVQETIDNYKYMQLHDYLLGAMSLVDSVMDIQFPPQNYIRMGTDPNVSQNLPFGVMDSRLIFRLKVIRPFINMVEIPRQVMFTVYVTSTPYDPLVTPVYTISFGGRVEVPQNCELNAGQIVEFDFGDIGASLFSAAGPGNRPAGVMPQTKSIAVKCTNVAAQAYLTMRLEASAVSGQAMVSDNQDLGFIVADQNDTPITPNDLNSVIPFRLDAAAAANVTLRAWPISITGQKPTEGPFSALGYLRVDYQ

Measured: binding result

T2 sequence (P0A8Z7 whole entry): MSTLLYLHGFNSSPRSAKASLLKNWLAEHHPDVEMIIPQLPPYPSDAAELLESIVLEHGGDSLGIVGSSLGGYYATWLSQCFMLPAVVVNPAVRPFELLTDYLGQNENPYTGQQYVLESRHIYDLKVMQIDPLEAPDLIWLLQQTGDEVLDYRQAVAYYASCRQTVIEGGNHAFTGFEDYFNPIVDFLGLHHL

B1: N-terminal biotinylated Lactoferricin B (peptide, UniProt P24627 36-60, looked up)
peptide: Biotin-FKCRRWQWRMKKLGAPSITCVRRAF
modifications: ends and bridges not checked
notes: lactoferricin B (LfcinB), cationic antimicrobial peptide of 25 amino acids; also called biotinylated LfcinB; biotin-labeled LfcinB; source: bought: Kelowna Inc
binds: all assays above
